Where a chain is given by its changes, count along the chain named.

Common to all, as to conditions: both partners purified
Assay [1] addresses T1, PFV-Gag-NtD (amino terminal domain of Prototypic Foamy Virus Gag, residues 1-179) (Prototypic foamy virus (PFV), UniProt P14349 1-179).
T1 construct: source: E. coli Rosetta 2 (DE3), purified (Ni-NTA, Superdex 200 SEC); not shown: His-tag, N-terminal, kept
T1 sequence: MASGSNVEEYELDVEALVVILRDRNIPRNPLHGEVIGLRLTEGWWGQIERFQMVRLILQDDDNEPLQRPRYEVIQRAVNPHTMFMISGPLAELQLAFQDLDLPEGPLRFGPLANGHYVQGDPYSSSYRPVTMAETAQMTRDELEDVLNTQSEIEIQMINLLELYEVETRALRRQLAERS
The experiment in a line: ITC; ITC-200; 1 mM Env peptide in the syringe injected into 50 µM PFV-Gag-NtD in the cell; 25 mM Na-phosphate pH 6.55, 100 mM NaCl, 0.5 mM TCEP. For orientation: ITC needs no label: the signal is the heat of the interaction.

The target of assay [2] is T2, PFV-Gag-NtD V14S/L21S (Prototypic foamy virus (PFV), UniProt P14349 1-179, V14S | L21S).
T2 construct: Gag of Prototypic Foamy Virus, residues 1-179 (Gag-NtD) with V14S and L21S; also called Val14/Leu21 to serine
T2 sequence (looked up): T1 sequence with V14S, L21S
The experiment in a line: AUC; sedimentation velocity of 75 µM equimolar mixtures of Gag-NtD and Env peptide, absorbance at 280 nm; bound fraction from the integrated absorbance of the 3S species in C(S).

Assay [3] addresses T3, PFV-Gag-NtD V14S (Prototypic foamy virus (PFV), UniProt P14349 1-179, V14S).
T3 construct: Gag of Prototypic Foamy Virus, residues 1-179 (Gag-NtD) with V14S
T3 sequence (looked up): T1 sequence with V14S
Described as above.

B1: PFV Env leader peptide residues 1-20 (peptide, UniProt P14351 1-20, looked up)
peptide: MAPPMTLQQWIIWKKMNKAH
notes: Envelope (Env) protein of Prototypic Foamy Virus, N-terminal leader peptide region, residues 1-20 (Met1 to His20); the text names M1, A2, P3, P4, M5, T6, L7, Q9, W10, W13, M16, A19, H20; also called Env_(1-20); Env(1-20); source: synthetic peptide, bought HPLC purified: Pepceuticals Ltd
As usually defined, the stoichiometry N is a count of units in the complex or per binding partner. For the molecule B1, in assay [1], the Ka is 150000 M⁻¹ and the “stoichiometry N” value is 1. In assay [2], the “fold reduction in binding against wt PFV-Gag-NtD” value is around 20 fold. In assay [3], the binding result is “binds”.
